B1: HIV-1 protease Flap+(I54A) (L10I, G48V, I54A, V82A on the pWT backbone) (enzyme)
chain: not shown
B2: HIV-1 protease Flap+(I54V) (L10I, G48V, I54V, V82A on the pWT backbone) (enzyme)
chain: not shown
B3: HIV-1 protease Flap+(I54) (L10I, G48V, V82A on the pWT backbone) (enzyme)
chain: not shown
B4: HIV-1 protease, pseudo wild type (pWT) (enzyme)
chain: not shown

Target: the molecule itself
Assay: other fluorescence titration

Protein	Kd
B1	< 250 nM
B2	< 250 nM
B3	< 250 nM
B4	< 250 nM

Reference: paper doi:10.1101/404996 (bioRxiv, 2018)
